The target in test [1] is T1, SARS-CoV-2 S on pseudovirions (Wuhan Hu-1 / IL1/2020, last 18 amino acids removed) (SARS-CoV-2, UniProt P0DTC2 14-1273). In words: cell-based or functional assay.
Test [2] concerns the target SARS-CoV-1 spike antigens (bead panel) (SARS-CoV-1, UniProt P59594 14-1195). In words: multiplex bead assay.
The target of test [3] is T2, HCoV-OC43 spike antigens (bead panel) (HCoV-OC43, UniProt P36334 14-1297).
T2 sequence: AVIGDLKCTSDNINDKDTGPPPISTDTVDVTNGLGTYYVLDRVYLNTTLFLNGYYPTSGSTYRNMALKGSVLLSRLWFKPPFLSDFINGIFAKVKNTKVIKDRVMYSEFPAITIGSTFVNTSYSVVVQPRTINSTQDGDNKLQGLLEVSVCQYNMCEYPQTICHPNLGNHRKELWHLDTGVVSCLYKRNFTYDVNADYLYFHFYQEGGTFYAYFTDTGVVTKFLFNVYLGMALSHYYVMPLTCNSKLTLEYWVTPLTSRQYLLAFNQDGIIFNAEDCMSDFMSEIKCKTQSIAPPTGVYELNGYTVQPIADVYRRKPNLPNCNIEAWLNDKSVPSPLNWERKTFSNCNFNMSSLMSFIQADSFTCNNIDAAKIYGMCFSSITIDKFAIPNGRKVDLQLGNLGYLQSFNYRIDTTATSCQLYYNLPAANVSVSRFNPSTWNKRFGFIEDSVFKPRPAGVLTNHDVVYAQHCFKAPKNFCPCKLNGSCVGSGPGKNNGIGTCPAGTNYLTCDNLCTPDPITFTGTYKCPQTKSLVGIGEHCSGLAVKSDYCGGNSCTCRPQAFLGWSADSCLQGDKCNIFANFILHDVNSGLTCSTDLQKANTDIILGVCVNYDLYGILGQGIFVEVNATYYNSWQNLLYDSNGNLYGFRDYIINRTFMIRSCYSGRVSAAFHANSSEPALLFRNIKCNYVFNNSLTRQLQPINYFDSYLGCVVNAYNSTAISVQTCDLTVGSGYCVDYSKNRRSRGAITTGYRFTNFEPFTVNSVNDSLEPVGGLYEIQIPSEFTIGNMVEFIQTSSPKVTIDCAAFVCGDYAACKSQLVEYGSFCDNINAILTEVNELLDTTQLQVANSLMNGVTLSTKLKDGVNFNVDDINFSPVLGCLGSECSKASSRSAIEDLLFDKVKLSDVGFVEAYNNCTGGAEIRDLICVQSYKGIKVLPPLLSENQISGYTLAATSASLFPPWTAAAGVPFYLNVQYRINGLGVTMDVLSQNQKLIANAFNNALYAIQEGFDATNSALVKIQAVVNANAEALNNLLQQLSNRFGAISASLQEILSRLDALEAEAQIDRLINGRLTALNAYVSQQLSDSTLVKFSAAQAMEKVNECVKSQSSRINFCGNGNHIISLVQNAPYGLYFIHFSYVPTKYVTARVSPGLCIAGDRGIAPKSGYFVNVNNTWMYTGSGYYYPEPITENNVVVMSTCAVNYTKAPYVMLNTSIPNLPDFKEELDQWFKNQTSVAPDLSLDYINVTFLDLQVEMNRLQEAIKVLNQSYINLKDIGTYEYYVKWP
The test can be described thus: multiplex bead assay.

Test [4] has as its target T1, SARS-CoV-2 S on pseudovirions (Wuhan …). The test can be described thus: cell-based or functional assay. The source holds these as a separate data set.
For test [5], the target named is T3, MERS-CoV spike antigens (bead panel) (MERS-CoV, UniProt K9N5Q8 18-1296).
T3 sequence: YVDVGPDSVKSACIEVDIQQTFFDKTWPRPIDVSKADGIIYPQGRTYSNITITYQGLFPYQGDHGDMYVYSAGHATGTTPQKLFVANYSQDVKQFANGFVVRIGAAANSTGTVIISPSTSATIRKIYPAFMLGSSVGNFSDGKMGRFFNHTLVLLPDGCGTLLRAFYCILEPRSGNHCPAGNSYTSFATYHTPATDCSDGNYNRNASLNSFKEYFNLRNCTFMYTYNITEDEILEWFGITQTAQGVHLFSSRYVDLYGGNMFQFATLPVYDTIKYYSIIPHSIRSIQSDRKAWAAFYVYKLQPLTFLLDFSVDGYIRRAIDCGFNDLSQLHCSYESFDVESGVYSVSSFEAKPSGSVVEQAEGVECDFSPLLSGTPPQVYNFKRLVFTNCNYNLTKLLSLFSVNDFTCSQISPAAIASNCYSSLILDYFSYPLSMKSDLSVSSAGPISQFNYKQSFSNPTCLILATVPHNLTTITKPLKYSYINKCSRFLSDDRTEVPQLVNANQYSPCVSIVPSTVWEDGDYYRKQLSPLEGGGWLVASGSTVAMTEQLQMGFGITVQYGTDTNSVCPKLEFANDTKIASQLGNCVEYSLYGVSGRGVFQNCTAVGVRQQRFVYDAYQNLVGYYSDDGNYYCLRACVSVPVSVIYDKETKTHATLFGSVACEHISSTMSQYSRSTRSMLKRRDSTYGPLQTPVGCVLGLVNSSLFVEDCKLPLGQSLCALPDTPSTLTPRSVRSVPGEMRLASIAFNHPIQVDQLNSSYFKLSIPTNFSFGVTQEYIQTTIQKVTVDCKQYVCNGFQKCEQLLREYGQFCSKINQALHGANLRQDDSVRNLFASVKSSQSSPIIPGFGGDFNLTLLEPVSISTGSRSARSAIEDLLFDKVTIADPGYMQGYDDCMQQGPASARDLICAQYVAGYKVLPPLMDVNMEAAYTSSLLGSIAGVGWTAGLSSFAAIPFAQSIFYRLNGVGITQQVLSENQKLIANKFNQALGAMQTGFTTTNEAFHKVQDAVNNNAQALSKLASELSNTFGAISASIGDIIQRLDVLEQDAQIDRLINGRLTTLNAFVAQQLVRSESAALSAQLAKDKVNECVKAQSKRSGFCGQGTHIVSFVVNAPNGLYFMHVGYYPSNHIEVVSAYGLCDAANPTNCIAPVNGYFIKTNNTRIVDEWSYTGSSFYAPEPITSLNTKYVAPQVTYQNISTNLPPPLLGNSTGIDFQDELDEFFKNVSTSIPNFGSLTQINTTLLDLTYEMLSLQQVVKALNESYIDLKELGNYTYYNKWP
In words: multiplex bead assay.

Test [6] deals with T4, HCoV-229E spike antigens (bead panel) (HCoV-229E, UniProt P15423 16-1115).
T4 sequence: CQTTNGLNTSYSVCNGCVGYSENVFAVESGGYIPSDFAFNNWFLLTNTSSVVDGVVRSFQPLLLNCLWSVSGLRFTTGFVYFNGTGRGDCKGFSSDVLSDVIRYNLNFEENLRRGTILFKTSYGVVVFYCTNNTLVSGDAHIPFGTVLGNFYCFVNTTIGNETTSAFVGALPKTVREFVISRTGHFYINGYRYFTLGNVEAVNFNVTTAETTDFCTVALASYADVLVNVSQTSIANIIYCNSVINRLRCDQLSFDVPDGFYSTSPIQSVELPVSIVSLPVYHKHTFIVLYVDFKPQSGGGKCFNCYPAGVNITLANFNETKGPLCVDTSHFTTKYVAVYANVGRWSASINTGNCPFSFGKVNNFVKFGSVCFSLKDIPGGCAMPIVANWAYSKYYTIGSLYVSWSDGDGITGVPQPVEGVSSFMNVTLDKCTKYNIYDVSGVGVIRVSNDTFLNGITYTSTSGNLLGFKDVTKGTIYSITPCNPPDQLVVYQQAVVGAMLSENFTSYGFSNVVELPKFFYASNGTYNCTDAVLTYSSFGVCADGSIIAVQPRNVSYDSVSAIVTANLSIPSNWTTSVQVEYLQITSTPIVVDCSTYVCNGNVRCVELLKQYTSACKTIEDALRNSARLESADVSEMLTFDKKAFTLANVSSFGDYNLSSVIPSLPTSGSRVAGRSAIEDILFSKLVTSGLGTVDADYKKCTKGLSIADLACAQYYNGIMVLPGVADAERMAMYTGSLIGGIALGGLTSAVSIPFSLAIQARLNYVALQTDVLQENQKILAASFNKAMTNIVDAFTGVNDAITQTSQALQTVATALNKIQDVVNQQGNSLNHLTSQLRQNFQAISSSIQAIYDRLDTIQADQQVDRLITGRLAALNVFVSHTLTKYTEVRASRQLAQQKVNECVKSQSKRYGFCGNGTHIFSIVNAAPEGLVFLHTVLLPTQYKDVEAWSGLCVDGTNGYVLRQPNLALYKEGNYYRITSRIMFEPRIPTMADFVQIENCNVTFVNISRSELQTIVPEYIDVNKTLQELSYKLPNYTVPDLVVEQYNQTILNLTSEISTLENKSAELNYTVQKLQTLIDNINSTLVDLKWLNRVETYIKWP
The test can be described thus: multiplex bead assay.

For test [7], the target named is T5, HCoV-HKU1 spike antigens (bead panel) (HCoV-HKU1, UniProt Q5MQD0 13-1300).
T5 sequence: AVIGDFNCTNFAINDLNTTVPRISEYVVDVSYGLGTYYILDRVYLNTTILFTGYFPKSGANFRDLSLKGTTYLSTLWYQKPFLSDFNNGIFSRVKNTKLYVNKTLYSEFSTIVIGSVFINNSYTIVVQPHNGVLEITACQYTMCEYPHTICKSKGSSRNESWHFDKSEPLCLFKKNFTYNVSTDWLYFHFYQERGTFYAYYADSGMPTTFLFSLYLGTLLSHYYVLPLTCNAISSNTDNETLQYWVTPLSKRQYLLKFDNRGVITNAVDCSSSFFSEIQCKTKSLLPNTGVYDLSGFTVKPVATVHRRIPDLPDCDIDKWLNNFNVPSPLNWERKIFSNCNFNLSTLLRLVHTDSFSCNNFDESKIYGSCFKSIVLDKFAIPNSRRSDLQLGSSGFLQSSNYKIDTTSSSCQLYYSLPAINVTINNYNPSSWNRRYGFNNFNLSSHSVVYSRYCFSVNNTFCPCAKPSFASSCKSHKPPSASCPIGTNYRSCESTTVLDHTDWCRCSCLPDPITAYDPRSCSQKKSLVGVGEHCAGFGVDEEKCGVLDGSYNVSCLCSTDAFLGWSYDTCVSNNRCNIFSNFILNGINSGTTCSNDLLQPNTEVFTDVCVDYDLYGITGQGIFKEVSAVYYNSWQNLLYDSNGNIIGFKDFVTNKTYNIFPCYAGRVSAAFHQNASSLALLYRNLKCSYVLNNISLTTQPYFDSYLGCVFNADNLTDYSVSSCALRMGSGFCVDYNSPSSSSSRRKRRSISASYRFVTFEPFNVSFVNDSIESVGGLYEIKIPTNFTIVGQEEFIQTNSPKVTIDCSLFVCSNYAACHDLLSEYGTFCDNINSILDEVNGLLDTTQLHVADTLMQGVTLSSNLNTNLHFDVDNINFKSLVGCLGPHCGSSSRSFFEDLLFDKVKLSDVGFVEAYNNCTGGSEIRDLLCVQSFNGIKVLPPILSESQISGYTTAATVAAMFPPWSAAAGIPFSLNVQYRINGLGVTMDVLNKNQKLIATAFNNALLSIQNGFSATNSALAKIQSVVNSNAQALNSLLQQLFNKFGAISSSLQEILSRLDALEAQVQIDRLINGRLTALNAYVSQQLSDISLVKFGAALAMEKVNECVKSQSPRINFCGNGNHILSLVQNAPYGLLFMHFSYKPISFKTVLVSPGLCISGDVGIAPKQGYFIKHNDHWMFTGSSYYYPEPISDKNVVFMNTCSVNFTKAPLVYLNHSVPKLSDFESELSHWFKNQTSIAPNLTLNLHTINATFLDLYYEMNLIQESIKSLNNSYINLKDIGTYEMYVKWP
In words: multiplex bead assay.

This note sets out measurements from patent US20240101645A1 (HENRY M JACKSON FOUNDATION FOR THE ADVANCEMENT OF MILITARY …, published 2024).

B1: COV_2165 (antibody, V domains shown)
VH: EVQLVESGGGLVQPGGSLRLSCAASGFTFSSYSMNWVRQAPGKGLEWVSYISSSSSTIYYADYVKGRFTISRDNAKNSLYLQMNSLRAEDRAVYYCARVARRDVAPATIAAYFLDYWGQGTLVTVSS
VL: EIVLTQSPATLSLSPGERATLSCRASQSLSSYLAWYQQKPGQAPRLLIYDASTRATGIPARFSGSGSGTDFTLTISSLEPEDFAVYYCQQRSTWPRGFTFGPGTKVDIK
notes: human IgG1
For B1, the “IC50, pseudotyped neutralization assay” value in test [1] stood at 10 ng/mL. In addition, the binding result in test [2] is reported as “no binding”. Further, in test [3], the binding result was “no binding”. For the same molecule, in test [4], the “Mean IC50, pSV neutralization” value was found to be 0.02 µg/ml and the “Mean IC80, pSV neutralization” value came out at 0.04 µg/ml.

B2: COV_2173 (antibody, V domains shown)
VH: QVQLQESGPGLVKPSETLSLTCSVSGDSISSSDYSWGWIRQPPGKGLEWIGTIYYIKNTYYNPSLRSRVTLSVDTSKNLFSLKLSSVTAADTAVYYCARERPPFDVVVVPAARPYNWFDPWGLGTLVIVSS
VL: QSVLMQPPSVSGAPGQRVTISCTGSSSNIGAGYDVHWYQQLPGTAPKLLIYGNNNRPSGVPDRFSGSKSGTSASLAITGLQADDEADYYCQSYDSSLSGSKVFGGGTKLTVL
notes: human IgG1
Turning to B2, the “IC50, pseudotyped neutralization assay” value in test [1] came to 4 ng/mL. Besides, the binding result in test [3] is reported as “no binding”. The “Mean IC80, pSV neutralization” value in test [4] stood at 0.01 µg/ml.

B3: COV_3103 (antibody, V domains shown)
VH: EVQLVESGGGLVQPGRSLRLSCVASGFIVENFAMHWVRQAPGKGLEWVSGITWNSASTGYVESVKGRFSISRDNGENSMFLEMNSLRPDDTALYYCVKATGSYWGFPMDVWGQGTTVTVSS
VL: EIVLTQSPGTLSLSPGEGGTLSCRASQSVRSNYLAWYQRKPGQAPRLLIYATSNRATGIPDRFSGSGSGTDFTLTISRLEPEDFAVYFCQHYGDSPYTFGQGTKLEIKR
notes: human IgG1
For the molecule B3, the binding result in test [2], in test [5], in test [6] and in test [7] was “no binding” in each case.
